Laboratory results: paper PMC10000386

B1: Bak [human] / Bak [human] (parent)
chain 1: MASGQGPGPPRQECGEPALPSASEEQVAQDTEEVFRSYVFYRHQQEQEAEGVAAPADPEMVTLPLQPSSTMGQVGRQLAIIGDDINRRYDSEFQTMLQHLQPTAENAYEYFTKIATSLFESGINWGRVVALLGFGYRLALHVYQHGLTGFLGQVTRFVVDFMLHHCIARWIAQRGGWVAALNLGNGPILNVLVVLGVVLLGQFVVRRFFKS
chain 2: B1 chain 1

Variants of: B1
Assay: BiFC (flow cytometry)
Conditions: with Bak [human]; 6 independent experiments (H164A), 8 (WT); read off a plot

Row | response (Mean Venus/Mean mRFP) | Variant
1 | 1.8 | chain 1 MASGQGPGPPRQECGEPALPSASEEQVAQDTEEVFRSYVFYRHQQEQEAEGVAAPADPEMVTLPLQPSSTMGQVGRQLAIIGDDINRRYDSEFQTMLQHLQPTAENAYEYFTKIATSLFESGINWGRVVALLGFGYRLALHVYQHGLTGFLGQVTRFVVDFMLAHCIARWIAQRGGWVAALNLGNGPILNVLVVLGVVLLGQFVVRRFFKS [chain 1 H164A]

Same assay, conditions: with Bak [human]; 6 independent experiments; read off a plot

Row | response (Mean Venus/Mean mRFP) | Variant
2 | 1.8 | chain 1 MASGQGPGPPRQECGEPALPSASEEQVAQDTEEVFRSYVFYRHQQEQEAEGVAAPADPEMVTLPLQPSSTMGQVGRQLAIIGDDINRRYDSEFQTMLQHLQPTAENAYEYFTKIATSLFESGINWGRVVALLGFGYRLALHVYQHGLTGFLGQVTRFVVDFMLAHCIARWIAQRGGWVAALNLGNGPILNVLVVLGVVLLGQFVVRRFFKS [chain 1 H164A]
